Source: article PMC5590901

Assays:
[1] = molecular target: T1, orexin receptor 1 (OX1R) (human (endogenous in HepG2)) (UniProt O43613)
T1 sequence: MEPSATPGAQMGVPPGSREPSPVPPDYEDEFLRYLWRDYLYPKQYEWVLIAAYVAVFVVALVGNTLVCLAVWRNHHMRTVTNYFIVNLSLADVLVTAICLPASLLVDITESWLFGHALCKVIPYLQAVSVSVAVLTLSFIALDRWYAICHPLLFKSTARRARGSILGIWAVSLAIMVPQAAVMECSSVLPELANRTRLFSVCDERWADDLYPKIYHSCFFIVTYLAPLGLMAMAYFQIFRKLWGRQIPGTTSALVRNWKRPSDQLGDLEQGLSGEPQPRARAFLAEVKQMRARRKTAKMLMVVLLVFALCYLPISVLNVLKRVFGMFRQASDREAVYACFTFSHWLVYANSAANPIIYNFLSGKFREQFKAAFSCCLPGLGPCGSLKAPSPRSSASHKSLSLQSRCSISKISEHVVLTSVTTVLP

[2] = molecular target: T1, orexin receptor 1 (OX1R) (human (endogenous in HepG2)); remark: listed apart in the source
[3] = molecular target: T1, orexin receptor 1 (OX1R) (human (endogenous in HepG2)); remark: listed apart in the source

QPLPDCCRQKTCSCRLYELLHGAGNHAAGILTL [Orexin A]
LDHA mRNA (real-time PCR) in HepG2 cells, 10^-7 M orexin A for 2 h, fold against control; dampened by the OX1R inhibitor SB334867 (10^-6 M) [1]: 0.5 fold | PDK1 mRNA (real-time PCR) in HepG2 cells, 10^-7 M orexin A for 2 h, fold against control; dampened by the OX1R inhibitor SB334867 (10^-6 M) [1]: 0.53 fold | GLUT1 protein expression (western blot) in HepG2 cells, orexin A 10^-9 to 10^-7 M for 2 h, fold of untreated cells; blocked by the OX1R inhibitor SB334867 (10^-6 M) [2]: 2.43 fold | glucose uptake (2-deoxy-D-[3H]glucose) in HepG2 cells, orexin A 10^-9 to 10^-7 M, fold of control; blocked by the OX1R inhibitor SB334867 (10^-6 M) [2]: 1.71 fold | cellular ATP content in HepG2 cells, orexin A 10^-9 to 10^-7 M for 2 h, fold of control; abrogated by the OX1R inhibitor SB334867 (10^-6 M) [3]: 3.03 fold
